Measurements as given in US20180371086A1 (Gilead, published 2018).

Columns and labels:
[1] = target: HIV-1 Env of the lab adapted HIV-1 BaL strain (HIV-1); assay: cell-based or functional assay
[2] = target: HIV-1 Env of subtype B isolate 93HT593 (HIV-1); assay: cell-based or functional assay
[3] = target: HIV-1 Env of subtype B isolate 92US657 (HIV-1); assay: cell-based or functional assay
[4] = target: HIV-1 Env of subtype B isolate 92US712 (HIV-1); assay: cell-based or functional assay
[5] = target: HIV-1 Env of subtype B isolate 92US727 (HIV-1); assay: cell-based or functional assay
[6] = target: T1, Human FcRn (human, UniProt P55899 24-297; P61769 21-119); assay: ELISA, FcRn coated on plate, pH 6.0
T1 construct: also called neonatal Fc receptor
T1 sequence (P55899 24-297 limits assumed, chain 1 of 2): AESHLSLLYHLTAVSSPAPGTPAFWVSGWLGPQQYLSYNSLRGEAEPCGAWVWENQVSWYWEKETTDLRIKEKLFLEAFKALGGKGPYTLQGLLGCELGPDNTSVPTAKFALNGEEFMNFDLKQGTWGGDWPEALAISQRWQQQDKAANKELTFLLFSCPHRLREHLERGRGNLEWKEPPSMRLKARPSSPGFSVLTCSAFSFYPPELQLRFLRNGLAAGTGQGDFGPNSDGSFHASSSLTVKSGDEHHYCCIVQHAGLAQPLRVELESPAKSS
T1 sequence (P61769 21-119 limits assumed, chain 2 of 2): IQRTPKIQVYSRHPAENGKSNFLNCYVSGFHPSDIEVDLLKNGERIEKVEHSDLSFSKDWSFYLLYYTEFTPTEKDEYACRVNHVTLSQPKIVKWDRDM
Description: (§1) The binding of antibodies to FcRn of various antibody variants at different pHs was determined. A 96-well Maxisorp plate was coated with 100 ul of 5 μg/ml FcRn. The plate was incubated overnight at 4° C., and then blocked with 4% skim milk for 2 hr at room temperature after washing 3 times with 0.05% Tween 20 washing buffer. […] The plate was then washed 3 times and 100 μL of Fab-anti-human Fab-HRP or Goat anti-human IgG-HRP secondary antibody diluted in 4% skimmed milk was added. Plates were then incubated 50 min at room temperature, washed three times, and 100 μL fresh TMB substrate was added. Plates were developed for 3 minutes on bench with gentle shaking. Plate was quenched with 100 μL 1M HCl, shaken briefly, read at A450 on a spectramax m5 plate reader.

[7] = target: T1, Human FcRn; assay: ELISA, FcRn coated on plate, pH 7.0
Description: as §1

[8] = target: T1, Human FcRn; assay: ELISA, FcRn coated on plate; ratio of EC50 at pH 7.0 to pH 6.0
Description: as §1

[9] = target: T1, Human FcRn; assay: ELISA, FcRn coated on plate; pH 7.0/6.0 ratio against that of PGT121
Description: as §1

[10] = target: T2, HIV-1 Env gp120 of virus WITO, on infected cells (HIV-1); assay: cell-based or functional assay
[11] = target: HIV-1 Env gp120 of virus 1489, on infected cells (HIV-1); assay: cell-based or functional assay
[12] = target: HIV-1 Env gp120 of virus 7015, on infected cells (HIV-1); assay: cell-based or functional assay
[13] = target: HIV-1 Env gp120 of virus 7552, on infected cells (HIV-1); assay: cell-based or functional assay
[14] = target: HIV-1 Env gp120 of virus CH058, on infected cells (HIV-1); assay: cell-based or functional assay
[15] = target: HIV-1 Env gp120 of virus 92US727, on infected cells (HIV-1); assay: cell-based or functional assay
[16] = target: T2, HIV-1 Env gp120 of virus WITO, on …; assay: cell-based or functional assay; remark: listed apart in the source
[17] = target: gp120 (HT593) expressed on human embryonic kidney (HEK) cells (HIV-1); assay: cell-based or functional assay

B1: PGT121.56 (antibody, human IgG1, lambda)
heavy: QMQLQESGPGLVKPSETLSLTCSVSGASISDSYWSWIRRSPGKGLEWIGYVHKSGDTNYSPSLKSRVNLSLDTSKNQVSLSLVAATAADSGKYYCARTLHGRRIYGIVAFNEWFTYFYMDVWGNGTQVTVSSASTKGPSVFPLAPSSKSTSGGTAALGCLVKDYFPEPVTVSWNSGALTSGVHTFPAVLQSSGLYSLSSVVTVPSSSLGTQTYICNVNHKPSNTKVDKKVEPKSCDKTHTCPPCPAPELLAGPDVFLFPPKPKDTLMISRTPEVTCVVVDVSHEDPEVKFNWYVDGVEVHNAKTKPREEQYNSTYRVVSVLTVLHQDWLNGKEYKCKVSNKALPLPEEKTISKAKGQPREPQVYTLPPSREEMTKNQVSLTCLVKGFYPSDIAVEWESNGQPENNYKTTPPVLDSDGSFFLYSKLTVDKSRWQQGNVFSCSVLHEALHSHYTQKSLSLSPGK
light: not shown
Q: For B1, which “Neutralization potency, IC50” value [1] is on record?
A: Its value is 0.02 µg/mL.

Q: What about the “Neutralization potency, IC50” value [2] of the same binder?
A: Its value is 0.164 µg/mL.

Q: What about the “Neutralization potency, IC50” value [3] of the same binder?
A: The value was 0.142 µg/mL.

Q: What about the “Neutralization potency, IC50” value [4] of the same binder?
A: Its value is 0.019 µg/mL.

Q: What about the “Neutralization potency, IC50” value [5] of the same binder?
A: The value was 0.011 µg/mL.

B2: PGT121.56 (antibody, human IgG1, lambda)
heavy: QMQLQESGPGLVKPSETLSLTCSVSGASISDSYWSWIRRSPGKGLEWIGYVHKSGDTNYSPSLKSRVNLSLDTSKNQVSLSLVAATAADSGKYYCARTLHGRRIYGIVAFNEWFTYFYMDVWGNGTQVTVSSASTKGPSVFPLAPSSKSTSGGTAALGCLVKDYFPEPVTVSWNSGALTSGVHTFPAVLQSSGLYSLSSVVTVPSSSLGTQTYICNVNHKPSNTKVDKKVEPKSCDKTHTCPPCPAPELLAGPDVFLFPPKPKDTLMISRTPEVTCVVVDVSHEDPEVKFNWYVDGVEVHNAKTKPREEQYNSTYRVVSVLTVLHQDWLNGKEYKCKVSNKALPLPEEKTISKAKGQPREPQVYTLPPSREEMTKNQVSLTCLVKGFYPSDIAVEWESNGQPENNYKTTPPVLDSDGSFFLYSKLTVDKSRWQQGNVFSCSVLHEALHSHYTQKSLSLSPGK
light: not shown
Q: How did the EC50 [6] turn out when B2 was run?
A: Its EC50 is 0.47 nM.

Q: What about the EC50 [7] of the same binder?
A: Its EC50 is 102 nM.

Q: And the “Ratio pH 7.0/6.0” value [8]?
A: The value was 217.

Q: What about the “Fold vs PGT121” value [9] of the same binder?
A: Its value is 7 fold.

B3: Exemplary gp120×CD3 Duobody® (bispecific antibody, human IgG1, lambda)
heavy 1: QMQLQESGPGLVKPSETLSLTCSVSGASISDSYWSWIRRSPGKGLEWIGYVHKSGDTNYNPSLKSRVHLSLDTSKNQVSLSLTGVTAADSGKYYCARTLHGRRIYGIVAFNEWFTYFYMDVWGTGTQVTVSSASTKGPSVFPLAPSSKSTSGGTAALGCLVKDYFPEPVTVSWNSGALTSGVHTFPAVLQSSGLYSLSSVVTVPSSSLGTQTYICNVNHKPSNTKVDKRVEPKSCDKTHTCPPCPAPEFEGGPSVFLFPPKPKDTLMISRTPEVTCVVVAVSHEDPEVKFNWYVDGVEVHNAKTKPREEQYNSTYRVVSVLTVLHQDWLNGKEYKCKVSNKALPAPIEKTISKAKGQPREPQVYTLPPSREEMTKNQVSLTCLVKGFYPSDIAVEWESNGQPENNYKTTPPVLDSDGSFFLYSRLTVDKSRWQQGNVFSCSVMHEALHNHYTQKSLSLSPGK
light 1: not shown
heavy 2: not shown
light 2: not shown
Q: Which “killing EC50; HIV-infected CEM-NKr-CCR5-LucR CD4 T cells; PBMC donor 4176; virus WITO” value [10] does the source give for B3 here?
A: The value was 0.248 µg/mL.

Q: What about the “killing EC50; HIV-infected CEM-NKr-CCR5-LucR CD4 T cells; PBMC donor 4288; virus WITO” value [10] of the same binder?
A: Its value is 0.046 µg/mL.

Q: What about the “killing EC50; HIV-infected CEM-NKr-CCR5-LucR CD4 T cells; PBMC donor 4176; virus 1489” value [11] of the same binder?
A: Its value is 0.028 µg/mL.

Q: And the “killing EC50; HIV-infected CEM-NKr-CCR5-LucR CD4 T cells; PBMC donor 4288; virus 1489” value [11]?
A: Its value is 0.005 µg/mL.

Q: And the “killing EC50; HIV-infected CEM-NKr-CCR5-LucR CD4 T cells; PBMC donor 4176; virus 7015” value [12]?
A: Its value is 1.04 µg/mL.

Q: What about the “killing EC50; HIV-infected CEM-NKr-CCR5-LucR CD4 T cells; PBMC donor 4288; virus 7015” value [12] of the same binder?
A: Its value is 0.446 µg/mL.

Q: And the “killing EC50; HIV-infected CEM-NKr-CCR5-LucR CD4 T cells; PBMC donor 4176; virus 7552” value [13]?
A: The value was 0.038 µg/mL.

Q: And the “killing EC50; HIV-infected CEM-NKr-CCR5-LucR CD4 T cells; PBMC donor 4288; virus 7552” value [13]?
A: The value was 0.003 µg/mL.

Q: What about the “Potency (IC50) of killing HIV-infected cells; PBMC-derived effector cells; donor 1003277; virus CHO58” value [14] of the same binder?
A: Its value is 0.002 µg/mL.

Q: What about the “Potency (IC50) of killing HIV-infected cells; PBMC-derived effector cells; donor 1004344; virus CHO58” value [14] of the same binder?
A: The value was 0.001 µg/mL.

Q: What about the “Potency (IC50) of killing HIV-infected cells; tonsil-derived effector cells; donor 1003277; virus CHO58” value [14] of the same binder?
A: Its value is 0.024 µg/mL.

Q: And the “Potency (IC50) of killing HIV-infected cells; tonsil-derived effector cells; donor 1004344; virus CHO58” value [14]?
A: The value was 0.031 µg/mL.

Q: What about the “Potency (IC50) of killing HIV-infected cells; PBMC-derived effector cells; donor 1004344; virus 92US727” value [15] of the same binder?
A: The value was 0.012 µg/mL.

Q: What about the “Potency (IC50) of killing HIV-infected cells; tonsil-derived effector cells; donor 1004344; virus 92US727” value [15] of the same binder?
A: Its value is 0.051 µg/mL.

Q: What about the “killing EC50; HIV-infected CD4 T cells (WITO); effector cells Eff Memory CD4” value [16] of the same binder?
A: The value was 0.02 µg/mL.

Q: What about the “killing EC50; HIV-infected CD4 T cells (WITO); effector cells Memory CD4” value [16] of the same binder?
A: The value was 0.02 µg/mL.

Q: And the “killing EC50; HIV-infected CD4 T cells (WITO); effector cells Memory CD8” value [16]?
A: The value was 0.02 µg/mL.

Q: What about the “killing EC50; HIV-infected CD4 T cells (WITO); effector cells Naïve CD4” value [16] of the same binder?
A: The value was 0.03 µg/mL.

Q: And the “killing EC50; HIV-infected CD4 T cells (WITO); effector cells γ Δ CD4” value [16]?
A: Its value is 0.09 µg/mL.

B4: Variant 2 (DS -> DF) (antibody, human IgG1, lambda, V domains shown)
VH: QMQLQESGPGLVKPSETLSLTCSVSGASISDSYWSWIRRSPGKGLEWIGYVHKSGDTNYNPSLKSRVHLSLDTSKNQVSLSLTGVTAADSGKYYCARTLHGRRIYGIVAFNEWFTYFYMDVWGTGTQVTVSS
VL: SDISVAPGETARISCGEKSLGSRAVQWYQHRAGQAPSLIIYNNQDRPSGIPERFSGSPDFRPGTTATLTITSVEAGDEADYYCHIWDSRVPTKWVFGGGTTLTVLG
Q: How did the “% ADCC Activity (ADCC reporter cell based assay; sample stressed at 25° C. for 4 weeks, relative to its untreated control)” value [17] turn out when B4 was run?
A: The value was 96%.

B5: Variant 4 (DS->GS) (antibody, human IgG1, lambda, V domains shown)
VH: QMQLQESGPGLVKPSETLSLTCSVSGASISDSYWSWIRRSPGKGLEWIGYVHKSGDTNYNPSLKSRVHLSLDTSKNQVSLSLTGVTAADSGKYYCARTLHGRRIYGIVAFNEWFTYFYMDVWGTGTQVTVSS
VL: SDISVAPGETARISCGEKSLGSRAVQWYQHRAGQAPSLIIYNNQDRPSGIPERFSGSPGSRPGTTATLTITSVEAGDEADYYCHIWDSRVPTKWVFGGGTTLTVLG
Q: Which “% ADCC Activity (ADCC reporter cell based assay; sample stressed at 25° C. for 4 weeks, relative to its untreated control)” value [17] does the source give for B5 here?
A: The value was 95%.

B6: Variant 1 (DS -> DY) (antibody, human IgG1, lambda, V domains shown)
VH: QMQLQESGPGLVKPSETLSLTCSVSGASISDSYWSWIRRSPGKGLEWIGYVHKSGDTNYNPSLKSRVHLSLDTSKNQVSLSLTGVTAADSGKYYCARTLHGRRIYGIVAFNEWFTYFYMDVWGTGTQVTVSS
VL: SDISVAPGETARISCGEKSLGSRAVQWYQHRAGQAPSLIIYNNQDRPSGIPERFSGSPDYRPGTTATLTITSVEAGDEADYYCHIWDSRVPTKWVFGGGTTLTVLG
Q: With B6 as the binder, how does the “% ADCC Activity (ADCC reporter cell based assay; sample stressed at 25° C. for 4 weeks, relative to its untreated control)” value [17] read?
A: Its value is 100%.

B7: Variant 3 (DS->DT) (antibody, human IgG1, lambda, V domains shown)
VH: QMQLQESGPGLVKPSETLSLTCSVSGASISDSYWSWIRRSPGKGLEWIGYVHKSGDTNYNPSLKSRVHLSLDTSKNQVSLSLTGVTAADSGKYYCARTLHGRRIYGIVAFNEWFTYFYMDVWGTGTQVTVSS
VL: SDISVAPGETARISCGEKSLGSRAVQWYQHRAGQAPSLIIYNNQDRPSGIPERFSGSPDTRPGTTATLTITSVEAGDEADYYCHIWDSRVPTKWVFGGGTTLTVLG
Q: With B7 as the binder, how does the “% ADCC Activity (ADCC reporter cell based assay; sample stressed at 25° C. for 4 weeks, relative to its untreated control)” value [17] read?
A: The value was 104%.
